B1: Interferon alpha/beta receptor 1 (Mus musculus), P33896 (parent)
chain: MLAVVGAAALVLVAGAPWVLPSAAGGENLKPPENIDVYIIDDNYTLKWSSHGESMGSVTFSAEYRTKDEAKWLKVPECQHTTTTKCEFSLLDTNVYIKTQFRVRAEEGNSTSSWNEVDPFIPFYTAHMSPPEVRLEAEDKAILVHISPPGQDGNMWALEKPSFSYTIRIWQKSSSDKKTINSTYYVEKIPELLPETTYCLEVKAIHPSLKKHSNYSTVQCISTTVANKMPVPGNLQVDAQGKSYVLKWDYIASADVLFRAQWLPGYSKSSSGSRSDKWKPIPTCANVQTTHCVFSQDTVYTGTFFLHVQASEGNHTSFWSEEKFIDSQKHILPPPPVITVTAMSDTLLVYVNCQDSTCDGLNYEIIFWENTSNTKISMEKDGPEFTLKNLQPLTVYCVQARVLFRALLNKTSNFSEKLCEKTRPGSFSTIWIITGLGVVFFSVMVLYALRSVWKYLCHVCFPPLKPPRSIDEFFSEPPSKNLVLLTAEEHTERCFIIENTDTVAVEVKHAPEEDLRKYSSQTSQDSGNYSNEEEESVGTESGQAVLSKAPCGGPCSVPSPPGTLEDGTCFLGNEKYLQSPALRTEPALLC
B2: Interferon alpha/beta receptor 1 (Homo sapiens), P17181 (parent)
chain: MMVVLLGATTLVLVAVAPWVLSAAAGGKNLKSPQKVEVDIIDDNFILRWNRSDESVGNVTFSFDYQKTGMDNWIKLSGCQNITSTKCNFSSLKLNVYEEIKLRIRAEKENTSSWYEVDSFTPFRKAQIGPPEVHLEAEDKAIVIHISPGTKDSVMWALDGLSFTYSLVIWKNSSGVEERIENIYSRHKIYKLSPETTYCLKVKAALLTSWKIGVYSPVHCIKTTVENELPPPENIEVSVQNQNYVLKWDYTYANMTFQVQWLHAFLKRNPGNHLYKWKQIPDCENVKTTQCVFPQNVFQKGIYLLRVQASDGNNTSFWSEEIKFDTEIQAFLLPPVFNIRSLSDSFHIYIGAPKQSGNTPVIQDYPLIYEIIFWENTSNAERKIIEKKTDVTVPNLKPLTVYCVKARAHTMDEKLNKSSVFSDAVCEKTKPGNTSKIWLIVGICIALFALPFVIYAAKVFLRCINYVFFPSLKPSSSIDEYFSEQPLKNLLLSTSEEQIEKCFIIENISTIATVEETNQTDEDHKKYSSQTSQDSGNYSNEDESESKTSEELQQDFV

Variants of: B1
Conditions: with fbw1b_human FBXW11, Q9UKB1
Sequence of fbw1b_human FBXW11, Q9UKB1 (Q9UKB1 whole entry): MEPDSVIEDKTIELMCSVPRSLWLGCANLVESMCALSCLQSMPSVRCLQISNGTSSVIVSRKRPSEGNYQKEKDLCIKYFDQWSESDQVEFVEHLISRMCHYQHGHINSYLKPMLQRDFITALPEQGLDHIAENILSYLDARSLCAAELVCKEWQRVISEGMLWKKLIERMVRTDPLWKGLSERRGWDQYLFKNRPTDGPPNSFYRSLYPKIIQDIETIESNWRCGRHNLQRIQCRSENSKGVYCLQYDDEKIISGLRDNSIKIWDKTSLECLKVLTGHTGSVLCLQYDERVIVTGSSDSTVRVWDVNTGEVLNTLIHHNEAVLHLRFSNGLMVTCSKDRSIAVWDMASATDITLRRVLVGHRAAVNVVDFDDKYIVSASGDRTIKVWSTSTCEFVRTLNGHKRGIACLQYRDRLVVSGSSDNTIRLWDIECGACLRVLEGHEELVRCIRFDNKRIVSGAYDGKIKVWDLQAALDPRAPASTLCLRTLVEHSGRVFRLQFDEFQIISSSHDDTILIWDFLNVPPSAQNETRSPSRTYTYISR

Question: How did the “effect of a mutation on the interaction” value turn out when S526A was run?
Answer: disrupting interaction

Variants of: B2
Conditions: with fbw1b_human FBXW11, Q9UKB1

Question: For S535A, which “effect of a mutation on the interaction” value is on record?
Answer: disrupting interaction

Variants of: B2
Conditions: with fbw1b_human FBXW11, Q9UKB1
Remark: another data set of the same source

Question: For S535A, which “effect of a mutation on the interaction” value is on record?
Answer: decreasing interaction

Reference: IntAct's records for PubMed 14532120
